{"source": "patent US20170089928A1", "about": "(SYSMEX, published 2017)", "key": {"[1]": {"target": "T1, Heat-denatured BSA (bovine serum albumin autoclaved for 15 minutes) (bovine, UniProt P02769 25-607)", "T1 construct": "also called heat-denatured BSA solution; reagent for detection", "T1 sequence (P02769 25-607 limits assumed)": "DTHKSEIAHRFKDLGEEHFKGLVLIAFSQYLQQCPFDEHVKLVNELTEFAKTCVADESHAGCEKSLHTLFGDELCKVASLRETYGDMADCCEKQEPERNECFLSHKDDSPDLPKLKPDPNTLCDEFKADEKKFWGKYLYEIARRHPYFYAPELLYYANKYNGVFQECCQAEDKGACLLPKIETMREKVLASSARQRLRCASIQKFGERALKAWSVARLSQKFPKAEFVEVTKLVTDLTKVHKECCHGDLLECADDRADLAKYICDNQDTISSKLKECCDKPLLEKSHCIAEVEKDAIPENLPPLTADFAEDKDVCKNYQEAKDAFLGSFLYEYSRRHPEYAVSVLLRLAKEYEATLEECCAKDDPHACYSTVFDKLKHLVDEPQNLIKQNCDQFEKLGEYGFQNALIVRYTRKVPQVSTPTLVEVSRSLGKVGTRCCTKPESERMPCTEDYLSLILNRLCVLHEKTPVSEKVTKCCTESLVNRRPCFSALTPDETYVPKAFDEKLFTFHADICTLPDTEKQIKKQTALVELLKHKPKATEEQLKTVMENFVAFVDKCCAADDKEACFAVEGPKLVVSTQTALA", "assay": "turbidity (OD550), heat-denatured BSA mixed with rising concentration of the Factor XIII peptide"}, "[2]": {"target": "T1, Heat-denatured BSA (bovine serum …)", "assay": "turbidity (OD550), Hill plot analysis", "experimental": "(§1) The Kd value and Hill coefficient were calculated for the respective samples."}, "[3]": {"target": "T1, Heat-denatured BSA (bovine serum …)", "assay": "turbidity (OD550), heat-denatured BSA mixed with rising concentration of the kininogen fragment", "experimental": "In the preparation, the sample was mixed so as to obtain a final concentration of the respective peptides in the mixed solutions of 0 to 80 μM.\nas §1"}, "[4]": {"target": "T1, Heat-denatured BSA (bovine serum …)", "assay": "turbidity (OD550), heat-denatured BSA mixed with rising concentration of C3f"}, "[5]": {"target": "T1, Heat-denatured BSA (bovine serum …)", "assay": "turbidity (OD550), heat-denatured BSA mixed with rising concentration of α-endorphin", "experimental": "In the preparation, the sample was mixed so as to obtain a final concentration of the respective peptides in the mixed solutions of 0 to 150 μM."}, "[6]": {"target": "T2, Heat-denatured ovoalbumin (OA) (UniProt P01012 2-386)", "T2 construct": "1.0 w/v % OA, pH adjusted to 5 to 7 with sodium hydroxide, autoclaved at 115 C for 15 min; also called Heat-denatured OA; denatured OA", "T2 sequence (looked up)": "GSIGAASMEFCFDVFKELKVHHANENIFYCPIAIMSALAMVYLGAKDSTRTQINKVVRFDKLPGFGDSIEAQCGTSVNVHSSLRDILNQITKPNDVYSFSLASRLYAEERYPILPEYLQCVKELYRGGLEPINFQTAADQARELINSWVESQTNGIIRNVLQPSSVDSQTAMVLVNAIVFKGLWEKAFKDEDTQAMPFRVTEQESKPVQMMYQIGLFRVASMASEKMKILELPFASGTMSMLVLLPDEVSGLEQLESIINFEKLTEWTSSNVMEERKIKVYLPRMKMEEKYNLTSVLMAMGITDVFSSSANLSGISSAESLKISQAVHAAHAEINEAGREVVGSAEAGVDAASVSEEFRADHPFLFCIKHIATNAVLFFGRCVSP", "assay": "turbidity (OD550), Hill plot analysis", "experimental": "(§2) In the preparation, the sample was mixed so as to obtain a final concentration of the partial ACTH peptide in the mixed solution of 0 to 80 μM.\n(§3) The thus-prepared mixed solutions were measured for absorbance at the wavelength of 550 nm (OD550) with a spectrophotometer UV-2500PC (Shimadzu Corporation)."}, "[7]": {"target": "T1, Heat-denatured BSA (bovine serum …)", "assay": "turbidity (OD550) against peptide concentration, Hill plot analysis", "experimental": "(§4) In this preparation, the sample was mixed so as to obtain a final concentration of the partial ACTH peptide in the mixed solution of 0 to 150 μM.\n(§5) The thus-prepared mixed solutions were measured for absorbance at the wavelength of 550 nm (OD550) in a spectrophotometer UV-2500PC (Shimadzu Corporation)."}, "Non-denatured BSA [8]": {"target": "T3, Non-denatured BSA (bovine, UniProt P02769 25-607)", "T3 construct": "BSA solution that was not heated; also called non-denatured BSA solution; BSA heat-denatured for 0 min", "T3 sequence (P02769 25-607 limits assumed)": "as the sequence (P02769 25-607 limits assumed) above", "assay": "turbidity (OD550) against peptide concentration, Hill plot analysis", "experimental": "as §4, §5"}, "Non-denatured BSA [9]": {"target": "T3, Non-denatured BSA", "assay": "turbidity (OD550), Hill plot analysis; heat denaturation period 0 min", "experimental": "(§6) The Kd value and Hill coefficient of BSA at respective heat denaturation periods were calculated."}, "[10]": {"target": "T4, BSA heat-denatured for 5 minutes (bovine, UniProt P02769 25-607)", "T4 construct": "Autoclaved at 110 C for 5 min; also called heat denaturation period 5 min", "T4 sequence (P02769 25-607 limits assumed)": "as the sequence (P02769 25-607 limits assumed) above", "assay": "turbidity (OD550), Hill plot analysis; heat denaturation period 5 min", "experimental": "as §6"}, "[11]": {"target": "T1, Heat-denatured BSA (bovine serum …)", "assay": "turbidity (OD550), Hill plot analysis; control solution without serum", "experimental": "(§7) In the preparation, the serum-based sample was mixed so as to adjust a final concentration of the partial ACTH peptide of to 0 to 80 μM and adjust a final concentration of serum of to an equivalent to 100-fold dilution in the mixed solution. For a control, a mixed solution was also prepared without serum (hereinafter referred to as “control solution”).\nas §3"}, "[12]": {"target": "T1, Heat-denatured BSA (bovine serum …)", "assay": "turbidity (OD550), Hill plot analysis; heat denaturation period 15 min", "experimental": "as §6"}, "[13]": {"target": "T5, BSA heat-denatured for 60 minutes (bovine, UniProt P02769 25-607)", "T5 construct": "Autoclaved at 110 C for 60 min; also called heat denaturation period 60 min", "T5 sequence (P02769 25-607 limits assumed)": "as the sequence (P02769 25-607 limits assumed) above", "assay": "turbidity (OD550), Hill plot analysis; heat denaturation period 60 min", "experimental": "as §6"}, "[14]": {"target": "T1, Heat-denatured BSA (bovine serum …)", "assay": "turbidity (OD550), Hill plot analysis; table row for nucleic acid 'No'", "experimental": "(§8) A comparative mixed solution was prepared by adding to the mixed solution a salmon sperm DNA (trade name: Sonicated Salmon Sperm DNA, BioDynamics Laboratory Inc.) as nucleic acid (final concentration of nucleic acid: 10 μM).\n(§9) The Kd value and Hill coefficient were calculated for the mixed solutions."}, "[15]": {"target": "T6, BSA heat-denatured for 120 minutes (bovine, UniProt P02769 25-607)", "T6 construct": "Autoclaved at 110 C for 120 min; also called heat denaturation period 120 min", "T6 sequence (P02769 25-607 limits assumed)": "as the sequence (P02769 25-607 limits assumed) above", "assay": "turbidity (OD550), Hill plot analysis; heat denaturation period 120 min", "experimental": "as §6"}, "[16]": {"target": "T1, Heat-denatured BSA (bovine serum …)", "assay": "turbidity (OD550), Hill fit with competitive inhibition term; serum at 100-fold dilution", "experimental": "as §7, §3"}, "[17]": {"target": "T4, BSA heat-denatured for 5 minutes", "assay": "turbidity (OD550), BSA heat-denatured for 5 min mixed with rising concentration of the partial ACTH peptide", "experimental": "as §6"}, "[18]": {"target": "T1, Heat-denatured BSA (bovine serum …)", "assay": "turbidity (OD550), BSA heat-denatured for 15 min mixed with rising concentration of the partial ACTH peptide", "experimental": "as §6"}, "[19]": {"target": "T5, BSA heat-denatured for 60 minutes", "assay": "turbidity (OD550), BSA heat-denatured for 60 min mixed with rising concentration of the partial ACTH peptide", "experimental": "as §6"}, "[20]": {"target": "T6, BSA heat-denatured for 120 minutes", "assay": "turbidity (OD550), BSA heat-denatured for 120 min mixed with rising concentration of the partial ACTH peptide", "experimental": "as §6"}, "[21]": {"target": "T7, Heat-denatured human serum albumin (HSA) (human, UniProt P02768 25-609)", "T7 construct": "1.0 w/v % HSA in ultrapure water, autoclaved at 115 C for 15 min; also called Heat-denatured HSA; denatured HSA", "assay": "turbidity (OD550), heat-denatured HSA (0.2 w/v %) mixed with rising concentration of the partial ACTH peptide", "experimental": "as §2, §3"}, "[22]": {"target": "T1, Heat-denatured BSA (bovine serum …)", "assay": "turbidity (OD550), Hill plot analysis; table row for nucleic acid 'Yes' (salmon sperm DNA, 10 µM); with nucleic acid (Yes)", "experimental": "as §8, §9"}, "[23]": {"target": "T1, Heat-denatured BSA (bovine serum …)", "assay": "turbidity (OD550), heat-denatured BSA mixed with rising peptide concentration; fitted curve of FIG. 1 superimposed"}, "[24]": {"target": "T1, Heat-denatured BSA (bovine serum …)", "assay": "turbidity (OD550) of mixtures of heat-denatured BSA (0.2 w/v %) with rising concentration of the partial ACTH peptide", "experimental": "as §4, §5"}, "[25]": {"target": "T1, Heat-denatured BSA (bovine serum …)", "assay": "turbidity (OD550), heat-denatured BSA mixed with rising concentration of the partial ACTH peptide, without nucleic acid", "experimental": "as §8, §9"}, "[26]": {"target": "T1, Heat-denatured BSA (bovine serum …)", "assay": "turbidity (OD550), heat-denatured BSA mixed with rising concentration of the partial ACTH peptide, with salmon sperm DNA (10 µM)", "experimental": "as §8, §9"}, "[27]": {"target": "T1, Heat-denatured BSA (bovine serum …)", "assay": "turbidity (OD550), heat-denatured BSA mixed with rising concentration of the Fibrinogen α peptide"}}}
{"binder": "AVPPNNSNAAEDDLPTVELQGVVPR", "note": "[Factor XIII (acidic peptide)]", "values": [{"measurement": "binding result", "setting": "[1]", "value": "no binding (tested: 80 µM)"}]}
{"binder": "HNLGHGHKHERDQGHGHQR (also called Kininogen (439-457); kininogen fragment)", "note": "[fragment of kininogen (positions 439 to 457)]", "values": [{"measurement": "Kd", "setting": "[2]", "value": 45, "unit": "µM"}, {"measurement": "EC50 (read off the curve)", "setting": "[3]", "value": "~40", "unit": "µM"}]}
{"binder": "HWESASLL (Acidic peptide from Biologica Co)", "note": "[C3f (acidic peptide)]", "values": [{"measurement": "binding result", "setting": "[4]", "value": "no binding (tested: 80 µM)"}]}
{"binder": "YGGFMTSEKSQTPLVT (Neutral comparative peptide, Peptide Institute, Inc; also called neutral peptide, α-endorphin)", "note": "[α-endorphin]", "values": [{"measurement": "binding result", "setting": "[5]", "value": "no binding (tested: 150 µM)"}]}
{"binder": "SYSMEHFRWGKPVGKKRRPVKVYP (also called basic peptide of interest)", "note": "[partial ACTH peptide consisting of the amino acids of positions 1 to 24 of ACTH]", "values": [{"measurement": "Kd", "setting": "[6]", "value": 67, "unit": "µM"}, {"measurement": "Kd", "setting": "[7]", "value": 30, "unit": "µM"}, {"measurement": "Kd", "setting": "Non-denatured BSA [8]", "value": 290, "unit": "µM"}, {"measurement": "Kd", "setting": "Non-denatured BSA [9]", "value": 290, "unit": "µM"}, {"measurement": "Kd", "setting": "[10]", "value": 33, "unit": "µM"}, {"measurement": "Kd", "setting": "[11]", "value": 25, "unit": "µM"}, {"measurement": "Kd", "setting": "[12]", "value": 30, "unit": "µM"}, {"measurement": "Kd", "setting": "[13]", "value": 28, "unit": "µM"}, {"measurement": "Kd", "setting": "[14]", "value": 40, "unit": "µM"}, {"measurement": "Kd", "setting": "[15]", "value": 33, "unit": "µM"}, {"measurement": "Kd", "setting": "[16]", "value": 29, "unit": "µM"}, {"measurement": "EC50 (read off the curve)", "setting": "[17]", "value": "~30", "unit": "µM"}, {"measurement": "EC50 (read off the curve)", "setting": "[18]", "value": "~30", "unit": "µM"}, {"measurement": "EC50 (read off the curve)", "setting": "[19]", "value": "~30", "unit": "µM"}, {"measurement": "EC50 (read off the curve)", "setting": "[20]", "value": "~30", "unit": "µM"}, {"measurement": "EC50 (read off the curve)", "setting": "[21]", "value": "40 to 50", "unit": "µM"}, {"measurement": "Kd", "setting": "[22]", "value": 30, "unit": "µM"}, {"measurement": "EC50 (read off the curve)", "setting": "[23]", "value": "20 to 30", "unit": "µM"}, {"measurement": "EC50 (read off the curve)", "setting": "[24]", "value": "~30", "unit": "µM"}, {"measurement": "EC50 (read off the curve)", "setting": "[25]", "value": "~30", "unit": "µM"}, {"measurement": "EC50 (read off the curve)", "setting": "[26]", "value": "~40", "unit": "µM"}]}
{"binder": "GESRNRNVHSGSTFFKYYLQGAKIPKPEASFS (also called ITIH4 (611-642); ITIH4 fragment)", "note": "[fragment of ITIH4 (positions 611 to 642)]", "values": [{"measurement": "Kd", "setting": "[2]", "value": 70, "unit": "µM"}]}
{"binder": "DEAGSEADHEGTHSTKRGHAKSRPV", "note": "[Fibrinogen α (neutral peptide)]", "values": [{"measurement": "binding result", "setting": "[27]", "value": "no binding (tested: 80 µM)"}]}
